Consider 3 molecules from PMC3229578, “Brachyury and Related Tbx Proteins Interact with the Mixl1 Homeodomain Protein and Negatively Regulate Mixl1 Transcriptional Activity” (PLoS ONE, 2011).

Assay in all cases: pull-down; bacterially made, purified His-Brachyury derivatives incubated with GST-Mixl1 derivatives or GST alone on glutathione beads in ELB150 buffer, 4°C, 3 h; washed in ELB300 (0.3 M KCl); Western blot with anti-T N19
What all share (settings): both partners purified
Background: A western blot detects proteins with antibodies after separation by electrophoresis.

One assay addresses T1, His mT-box (mouse, UniProt P20293 1-230).
T1 construct: Brachyury (T), mouse, T-box domain aa 1-230; also called His-Brachyury T-box domain; T-box domain (aa 1–230) of Brachyury; source: E. coli BL21 RIPL(DE3), purified (Talon resin)
T1 sequence (looked up): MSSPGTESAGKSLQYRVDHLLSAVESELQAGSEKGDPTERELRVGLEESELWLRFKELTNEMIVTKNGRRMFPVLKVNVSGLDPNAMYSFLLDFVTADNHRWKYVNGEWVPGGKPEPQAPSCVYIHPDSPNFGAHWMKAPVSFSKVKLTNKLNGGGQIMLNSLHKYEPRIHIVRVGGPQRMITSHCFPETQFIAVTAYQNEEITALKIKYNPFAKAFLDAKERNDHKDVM

The next assay deals with T2, His-mBrachyury (mouse, UniProt P20293 1-436).
T2 construct: Brachyury (T), mouse; in pET15b by Gateway cloning; also called mT; recombinant His-tagged T protein; source: E. coli BL21 RIPL(DE3), purified (Talon resin)
T2 sequence (looked up): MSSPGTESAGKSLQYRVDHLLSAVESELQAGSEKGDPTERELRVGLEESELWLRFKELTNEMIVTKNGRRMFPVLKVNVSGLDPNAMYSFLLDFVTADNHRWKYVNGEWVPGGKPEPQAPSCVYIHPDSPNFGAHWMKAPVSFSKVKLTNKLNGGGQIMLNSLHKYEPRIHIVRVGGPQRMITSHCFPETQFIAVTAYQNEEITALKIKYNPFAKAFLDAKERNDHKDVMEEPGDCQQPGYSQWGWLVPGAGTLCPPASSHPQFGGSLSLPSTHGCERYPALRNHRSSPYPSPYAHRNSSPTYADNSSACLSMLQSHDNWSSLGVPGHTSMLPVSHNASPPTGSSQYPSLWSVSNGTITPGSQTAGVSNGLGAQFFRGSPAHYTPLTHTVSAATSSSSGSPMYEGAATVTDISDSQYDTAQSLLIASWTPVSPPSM

A further assay addresses T3, His-hBrachyury (human, UniProt O15178 1-435).
T3 construct: Brachyury (T), human; in pET15b by Gateway cloning; also called hT; pET15b-hBrachyury; source: E. coli BL21 RIPL(DE3), purified (Talon resin)
T3 sequence (looked up): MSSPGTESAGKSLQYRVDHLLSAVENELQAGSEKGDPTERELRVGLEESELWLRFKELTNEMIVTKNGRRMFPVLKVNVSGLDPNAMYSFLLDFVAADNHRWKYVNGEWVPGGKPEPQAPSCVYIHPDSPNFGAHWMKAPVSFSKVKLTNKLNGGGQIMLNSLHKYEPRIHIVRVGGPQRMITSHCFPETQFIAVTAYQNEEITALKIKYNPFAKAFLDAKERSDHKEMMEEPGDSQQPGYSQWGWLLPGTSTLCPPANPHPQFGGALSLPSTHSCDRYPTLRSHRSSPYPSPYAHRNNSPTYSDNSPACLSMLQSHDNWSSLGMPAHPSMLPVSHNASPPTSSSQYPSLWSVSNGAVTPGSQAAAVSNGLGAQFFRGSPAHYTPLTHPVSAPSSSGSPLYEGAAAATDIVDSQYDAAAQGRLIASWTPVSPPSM

B1: GST mMixl1 HD (domain or fragment)
chain: not shown
notes: Made as one of the 'GST-Mixl1 derivatives' of the methods; source: E. coli BL21 RIPL(DE3), purified (glutathione agarose)
For B1, the binding result in the assay with His mT-box was “binds”.

B2: GST-mMixl1 (bacterial) (natural protein)
chain: not shown
notes: Mixl1 homeodomain protein, mouse; in pGEX2T by Gateway cloning; also called recombinant GST mMixl1; pGEX-mMixl1; source: E. coli BL21 RIPL(DE3), purified (glutathione agarose)
On to B2, for which, in the assay with His-mBrachyury, the binding result is “binds”.

B3: GST-hMixl1 (natural protein)
chain: not shown
notes: MIXL1, the human ortholog of Mixl1; in pGEX2T by Gateway cloning; also called pGEX-hMixl1; source: E. coli BL21 RIPL(DE3), purified (glutathione agarose)
Turning to B3, the binding result in the assay with His-hBrachyury is listed as “binds”.
